The record followed here is the supplement of paper PMC10567573.

B1: CASP6 (parent)
chain: TCADRDNLTRRFSDLGFEVKCFND
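Also: lentivirally expressed fusions sorted by FACS into six bins by GFP to DsRed ratio, PSI derived from sequencing read proportions per bin multiplied by bin number.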

The variants in the data set derive from B1. The data set is described as follows: protein stability index of a GFP-peptide fusion (GPS, HEK-293T) (PSI 1-6); higher = more stable. Particulars: c terminus: a fixed tail appended.
For TCADRDNLTRRFSDLMFEVKCFND [G16M], the protein stability index is 2.14.
Consider TCADRDNLTRRFSDLHFEVKCFND [G16H], for which the protein stability index worked out at 2.84.
Turning to TCADRDNLTRRFSDLDFEVKCFND [G16D], the protein stability index stood at 3.33.
Regarding TCADRDNLTRRFSDLCFEVKCFND [G16C], the protein stability index is 3.18.
For the variant TCADRDNLTRRFSDLVFEVKCFND [G16V], the protein stability index worked out at 1.92.
The value for TCADRDNLTRRFSDLQFEVKCFND [G16Q] was 3.31; that for TCADRDNLTRRFSDLKFEVKCFND [G16K] was 2.68; that for TCADRDNLTRRFSDLSFEVKCFND [G16S] was 3.26.
With TCADRDNLTRRFSDLYFEVKCFND [G16Y] the figure was 2.27; with TCADRDNLTRRFSDLAFEVKCFND [G16A], 2.99.
On to TCADRDNLTRRFSDLLFEVKCFND [G16L], for which the protein stability index came to 1.89.
With TCADRDNLTRRFSDLNFEVKCFND [G16N], the protein stability index was found to be 3.61.
As to TCADRDNLTRRFSDLRFEVKCFND [G16R], the protein stability index came to 3.13.
With TCADRDNLTRRFSDLPFEVKCFND [G16P] the figure was 3.54.
For the variant TCADRDNLTRRFSDLWFEVKCFND [G16W], the protein stability index came to 1.93.
Regarding TCADRDNLTRRFSDLTFEVKCFND [G16T], the protein stability index turned out to be 3.04.
The value for TCADRDNLTRRFSDLEFEVKCFND [G16E] was 3.83.
Regarding TCADRDNLTRRFSDLFFEVKCFND [G16F], the protein stability index amounted to 2.03.
With TCADRDNLTRRFSDLIFEVKCFND [G16I] the figure was 1.92.
With TCADRDNLTRRFSDLGIEVKCFND [F17I] the figure was 3.54; with TCADRDNLTRRFSDLGNEVKCFND [F17N], 4.26; with TCADRDNLTRRFSDLGLEVKCFND [F17L], 4.16.
The value for TCADRDNLTRRFSDLGAEVKCFND [F17A] was 3.7.
With TCADRDNLTRRFSDLGKEVKCFND [F17K], the protein stability index came out at 3.37.
With TCADRDNLTRRFSDLGMEVKCFND [F17M] the figure was 3.58.
With TCADRDNLTRRFSDLGEEVKCFND [F17E] the figure was 4.52; with TCADRDNLTRRFSDLGDEVKCFND [F17D], 4.8.
The value for TCADRDNLTRRFSDLGTEVKCFND [F17T] was 3.75.
Regarding TCADRDNLTRRFSDLGHEVKCFND [F17H], the protein stability index worked out at 3.47.
As to TCADRDNLTRRFSDLGGEVKCFND [F17G], the protein stability index is 4.34.
The value for TCADRDNLTRRFSDLGQEVKCFND [F17Q] was 4.29; that for TCADRDNLTRRFSDLGPEVKCFND [F17P] was 4.04; that for TCADRDNLTRRFSDLGREVKCFND [F17R] was 2.95.
As to TCADRDNLTRRFSDLGCEVKCFND [F17C], the protein stability index is 3.36.
As for TCADRDNLTRRFSDLGSEVKCFND [F17S], the protein stability index stood at 4.17.
With TCADRDNLTRRWSDLGFEVKCFND [F12W] the figure was 3.1; with TCADRDNLTRRYSDLGFEVKCFND [F12Y], 3.45.
As for TCADRDNLTRRFSDGGFEVKCFND [L15G], the protein stability index was determined as 3.69.
With TCADRDNLTRRFSDKGFEVKCFND [L15K] the figure was 4.11; with TCADRDNLTRRFSDQGFEVKCFND [L15Q], 3.43.
The value for TCADRDNLTRRFSDEGFEVKCFND [L15E] was 4.57; that for TCADRDNLTRRFSDDGFEVKCFND [L15D] was 3.92; that for TCADRDNLTRRFSDMGFEVKCFND [L15M] was 3.85.
With TCADRDNLTRRFSDHGFEVKCFND [L15H] the figure was 3.65; with TCADRDNLTRRFSDRGFEVKCFND [L15R], 3.27.
In the case of TCADRDNLTRRFSDFGFEVKCFND [L15F], the protein stability index was 3.07.
With TCADRDNLTRRFSDWGFEVKCFND [L15W] the figure was 2.75; with TCADRDNLTRRFSDVGFEVKCFND [L15V], 3.15; with TCADRDNLTRRFSDTGFEVKCFND [L15T], 4.13.
With TCADRDNLTRRFSDCGFEVKCFND [L15C] the figure was 2.58.
With TCADRDNLTRRFSDPGFEVKCFND [L15P] the figure was 4.59; with TCADRDNLTRRFSDSGFEVKCFND [L15S], 4.02.
Turning to TCADRDNLTRRFSDNGFEVKCFND [L15N], the protein stability index was 3.94.
The value for TCADRDNLTRRFSDYGFEVKCFND [L15Y] was 3.02; that for TCADRDNLTRRFSDIGFEVKCFND [L15I] was 2.91.
The value for TCADRDNLTRRFSDAGFEVKCFND [L15A] was 3.16.
Turning to TCADRDNLTRRFSELGFEVKCFND [D14E], the protein stability index worked out at 3.34.
The value for TCADRDNLTRRFSMLGFEVKCFND [D14M] was 1.97; that for TCADRDNLTRRFSSLGFEVKCFND [D14S] was 2.46.
With TCADRDNLTRRFSTLGFEVKCFND [D14T] the figure was 2.27; with TCADRDNLTRRFSCLGFEVKCFND [D14C], 2.91.
With TCADRDNLTRRFSQLGFEVKCFND [D14Q] the figure was 2.93.
For the variant TCADRDNLTRRFSRLGFEVKCFND [D14R], the protein stability index came out at 2.45.
The value for TCADRDNLTRRFSPLGFEVKCFND [D14P] was 2.47; that for TCADRDNLTRRFSNLGFEVKCFND [D14N] was 3.8.
With TCADRDNLTRRFSWLGFEVKCFND [D14W] the figure was 1.97; with TCADRDNLTRRFSVLGFEVKCFND [D14V], 2.43.
The value for TCADRDNLTRRFSFLGFEVKCFND [D14F] was 2.07; that for TCADRDNLTRRFSHLGFEVKCFND [D14H] was 2.4.
As to TCADRDNLTRRFSALGFEVKCFND [D14A], the protein stability index was found to be 3.23.
With TCADRDNLTRRFSYLGFEVKCFND [D14Y] the figure was 2.46; with TCADRDNLTRRFSGLGFEVKCFND [D14G], 3.46.
With TCADRDNLTRRFSLLGFEVKCFND [D14L], the protein stability index worked out at 2.5.
Regarding TCADRDNLTRRFSILGFEVKCFND [D14I], the protein stability index was 2.79.
With TCADRDNLTRRFSKLGFEVKCFND [D14K] the figure was 3.36; with TCADRDNLTRRFWDLGFEVKCFND [S13W], 2.36; with TCADRDNLTRRFYDLGFEVKCFND [S13Y], 2.7.
Regarding TCADRDNLTRRFMDLGFEVKCFND [S13M], the protein stability index was found to be 2.71.
The value for TCADRDNLTRRFKDLGFEVKCFND [S13K] was 3.45; that for TCADRDNLTRRFHDLGFEVKCFND [S13H] was 2.88.
The value for TCADRDNLTRRFVDLGFEVKCFND [S13V] was 2.32; that for TCADRDNLTRRFQDLGFEVKCFND [S13Q] was 3.65.
As for TCADRDNLTRRFCDLGFEVKCFND [S13C], the protein stability index is 2.67.
As to TCADRDNLTRRFEDLGFEVKCFND [S13E], the protein stability index came out at 3.84.
Consider TCADRDNLTRRFFDLGFEVKCFND [S13F], for which the protein stability index came to 2.7.
For TCADRDNLTRRFIDLGFEVKCFND [S13I], the protein stability index worked out at 2.75.
With TCADRDNLTRRFGDLGFEVKCFND [S13G], the protein stability index amounted to 3.
As for TCADRDNLTRRFNDLGFEVKCFND [S13N], the protein stability index is 3.44.
With TCADRDNLTRRFLDLGFEVKCFND [S13L] the figure was 2.71; with TCADRDNLTRRFPDLGFEVKCFND [S13P], 2.86; with TCADRDNLTRRFDDLGFEVKCFND [S13D], 3.83.
Regarding TCADRDNLTRRFRDLGFEVKCFND [S13R], the protein stability index came to 2.98.
TCADRDNLTRRFTDLGFEVKCFND [S13T]: the protein stability index was 2.58.
With TCADRDNLTRRFADLGFEVKCFND [S13A] the figure was 3.46.
